Where a SMILES comes first, the peptide text is derived from it. Bridges are numbered along the chain shown (N, C = ends). The star is where a group is joined. Cy5(nonsulfonated) = CN1C(=CC=CC=CC2=[N+](CCCCCC(=O)*)c3ccccc3C2(C)C)C(C)(C)c2ccccc21; DOTA = O=C(O)CN1CCN(CC(=O)O)CCN(CC(=O)*)CCN(CC(=O)O)CC1
Experiments:
[1] = biological target: T1, ADAMTS4 in the aortic wall of ApoE−/− mice (Mus musculus, UniProt Q8BNJ2); test: LA-ICP-MS spatial localization of Gd in the aortic wall; type: in vivo; settings: 10 µm cryosections, n = 3 per time point
T1 construct: from tissue
T1 sequence (Q8BNJ2 209-833): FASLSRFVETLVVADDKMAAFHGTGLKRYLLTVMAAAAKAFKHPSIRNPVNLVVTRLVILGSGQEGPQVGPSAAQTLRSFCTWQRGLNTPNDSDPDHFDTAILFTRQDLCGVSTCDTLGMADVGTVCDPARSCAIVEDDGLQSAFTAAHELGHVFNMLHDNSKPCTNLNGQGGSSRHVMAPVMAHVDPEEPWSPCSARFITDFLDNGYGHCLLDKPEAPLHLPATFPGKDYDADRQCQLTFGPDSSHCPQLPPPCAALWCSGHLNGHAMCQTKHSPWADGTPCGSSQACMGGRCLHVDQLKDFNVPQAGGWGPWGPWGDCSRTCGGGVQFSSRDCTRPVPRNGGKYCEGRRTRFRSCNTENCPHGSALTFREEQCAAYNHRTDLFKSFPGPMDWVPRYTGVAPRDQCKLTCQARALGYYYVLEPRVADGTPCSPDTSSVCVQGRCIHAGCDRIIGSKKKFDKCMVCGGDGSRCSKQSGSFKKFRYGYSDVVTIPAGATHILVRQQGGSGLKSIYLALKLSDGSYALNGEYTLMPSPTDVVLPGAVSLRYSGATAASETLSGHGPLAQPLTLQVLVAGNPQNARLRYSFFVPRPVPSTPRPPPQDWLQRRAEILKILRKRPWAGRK
Experimental: Aortic tissues were cut into 10 µm cryosections at −20 °C and mounted on SuperFrost Plus adhesion slides (Thermo Scientific, Waltham, MA, USA). Laser ablation inductively coupled plasma mass spectrometry (LA-ICP-MS) analysis was performed on a commercial LA system (NWR-213, ESI, Bozeman, MT, USA) equipped with a two-volume sample chamber coupled to a sector field ICP-MS (Element XR, Thermo Fisher Scientific, Bremen, Germany) (Supplementary Table 6).
Helium was used as the carrier gas, and argon was added before reaching the torch using a Y-piece (Supplementary Table 7). The ICP-MS was tuned for maximum ion intensity and good signal stability (RSD < 5%), keeping the oxide ratio (ThO/Th) below 1% during the continuous ablation of a microscopic glass slide. Matrix-matched agarose gel standards cast on glass slides were used for drift control and calibration. These standards contain Gd concentrations between 26.6 pg mm^−2 and 600.1 pg mm^−2. Averaged intensities of six line-scans per standard were used for calibration. Data visualization was done in Origin 2022 (OriginLab Corporation, Northampton, MA).

[2] = Biodistribution and blood clearance by ICP-MS of Gd
ADAMTS4 = biological target: T2, ADAMTS4 (Homo sapiens, UniProt O75173); test: MST instrument, ligand-dependent fluorescence change, Cy5-labeled peptides vs ADAMTS4 (incl. alanine scan); type: binding; settings: Cy5-labeled peptide 3 nM, 25 °C, n = 3
T2 construct: This is consistent with the recombinant proteins, we used in the screening process; purchased BioTeZ Berlin-Buch GmbH 30 400 102
T2 sequence (O75173 213-685): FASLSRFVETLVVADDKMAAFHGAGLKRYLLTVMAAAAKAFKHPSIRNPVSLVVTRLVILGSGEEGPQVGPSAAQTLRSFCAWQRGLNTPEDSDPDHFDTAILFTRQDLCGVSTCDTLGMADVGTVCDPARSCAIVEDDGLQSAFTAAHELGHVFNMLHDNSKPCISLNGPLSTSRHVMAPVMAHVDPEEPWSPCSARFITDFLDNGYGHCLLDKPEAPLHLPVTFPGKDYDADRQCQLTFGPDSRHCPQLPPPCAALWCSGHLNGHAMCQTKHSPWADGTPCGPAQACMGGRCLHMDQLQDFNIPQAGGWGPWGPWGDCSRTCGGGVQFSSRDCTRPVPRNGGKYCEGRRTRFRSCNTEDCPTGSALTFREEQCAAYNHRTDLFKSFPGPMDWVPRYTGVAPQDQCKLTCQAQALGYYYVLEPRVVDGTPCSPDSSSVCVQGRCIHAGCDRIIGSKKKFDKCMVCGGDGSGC
Experimental: Microscale thermophoresis (MST) was performed on a Monolith Pico (NanoTemper, Munich, Germany). The Cy5-labeled peptides were diluted into the MST buffer (150 mM NaCl, 50 mM TRIS-HCl, 5 mM CaCl2, and Tween-20) to reach a dilution of 6 nM. ADAMTS4, ADAMTS5, and ADAMTS1 were directly used with the supplied concentration. For ADAMTS4, the starting concentration was 4.96 µM, while for ADAMTS1 it was 4.88 µM and for ADAMTS5 it was 2.46 µM. […] 20 µl of the protein solutions were transferred into a PCR tube. 10 µl of this first vial was transferred into a second vial and mixed by pipetting with 10 µl of the MST buffer. The dilution series was continued 14 times. From tube 16, 10 µl were removed. Into all 16 tubes, 10 µl of the respective peptide solution were added and mixed by pipetting. The samples were incubated for 20 min and subsequently transferred to premium capillaries (NanoTemper, Munich, Germany). The capillaries were transferred into the Monolith tray and measured with 10% excitation power on the pico-red excitation on high MST power at 25 °C. Analysis was performed with MO.Affinity Analysis v3.0.1 (NanoTemper, Munich, Germany) and Origin 2022 (OriginLab Corporation, Northampton, MA). […] We checked for ADAMTS4 and the ADAMTS4-specific-Cy5-labeled probe via a saturation test for specifying the ligand-dependent fluorescence change. Therefore, the three highest ligand concentrations and the three lowest ligand concentrations of the measurement were used and centrifuged for 15 min at 16060 x g at 20 °C. Of each concentration, 7 µl were picked and mixed with 7 µl of a 10 M urea solution each. The samples were heated at 95 °C for 5 min and measured in the MST. […] Each measurement was repeated three times independently and the binding constant was calculated by merging all three measurements. […] The data were normalized using MO Affinity Analysis v3.0.1 and the fraction bound [−] was shown. […] Therefore, the percentage variance of the values to the average was plotted.
All measurements were performed with 10% LED power, high MST power and at 25 °C. The ligand dependent fluorescence change was used for determining the binding. […] The concentrations of the peptide were kept constant (3 nM in the measurement), while the proteins were diluted in the same manner as for ADAMTS4. […] The Cy5-labeled peptides (3 nM in the measurement) were kept constant, while ADAMTS4 was diluted in the same manner for each peptide (n=3 biologically independent measurements for each peptide; the data are presented as mean values ± SD). […] MST: microscale thermophoresis; nM: nanomolar; His: L-histidine; LED: light-emitting diode; n/a: not available; KD: binding constant.

[3] = male ApoE−/− mice, i.v., n = 3 per time point

Row | Structure (SMILES) | colocalization of gadolinium with areas positive for ADAMTS4 [1] | time of highest aortic uptake after intravenous injection ([2]; ApoE−/− mice) | blood clearance ([2]; ApoE−/− mice, i.v., over 120 min) | Gd levels in kidneys and urine [2, 3] | gadolinium uptake in liver, lung, spleen, heart and muscle [2, 3] | binding to ADAMTS4 (ligand-dependent fluorescence change), in words (ADAMTS4)
1 | N=C(N)NCCC[C@@H]1NC(=O)[C@H](CCCNC(=N)N)NC(=O)[C@H](CO)NC(=O)[C@@H](N)CSSC[C@@H](C(=O)N[C@@H](CO)C(=O)NCC(=O)NCC(=O)N[C@@H](CO)C(=O)NCC(=O)NCC(=O)N[C@@H](CCCCNC(=O)CN2CCN(CC(=O)O)CCN(CC(=O)O)CCN(CC(=O)O)CC2)C(=O)NCC(N)=O)NC(=O)CNC1=O (Gd complex, metal not drawn) [ADAMTS4-specific probe] (H-CSRRGCSGGSGGK(DOTA)G-NH2; disulfide 1-6) | strong colocalization | 15 min | rapid blood clearance | Higher levels of Gd | low gadolinium uptake | –
2 | C[N+]1=C(C=CC=CC=C2N(CCCCCC(=O)NCCCC[C@H](NC(=O)CNC(=O)CNC(=O)[C@H](CO)NC(=O)CNC(=O)CNC(=O)[C@H](CO)NC(=O)[C@@H]3CSSC[C@H](N)C(=O)N[C@@H](CO)C(=O)N[C@@H](CCCNC(=N)N)C(=O)N[C@@H](CCCNC(=N)N)C(=O)NCC(=O)N3)C(=O)NCC(N)=O)c3ccccc3C2(C)C)C(C)(C)c2ccccc21 [Cy5-labeled probe] (H-CSRRGCSGGSGGK(Cy5(nonsulfonated))G-NH2; disulfide 1-6; N-terminus and C-terminus assumed) | – | – | – | – | – | a ligand dependent fluorescence change occurs
